Laboratory results reported in patent US20200283478A1 (Genentech, published 2020).
Like-named read-outs stand apart in the source and are kept apart here. Bridge positions count the residues as written; N and C are the ends. Square brackets hold non-standard residues; d marks the D form. * marks the point of attachment. 5FAM = O=C1OC2(c3ccc(O)cc3Oc3cc(O)ccc32)c2ccc(C(=O)*)cc21; Ach = 2-aminocyclohexane-1-carboxylic acid; hArg = N=C(N)NCCCC[C@H](N)C(=O)O; Dap = NC[C@H](N)C(=O)O

Experiments:
[1] = molecular target: T1, PCSK9 (proprotein convertase subtilisin/kexin type 9), His-tagged, full-length (human, UniProt Q8NBP7 31-692); assay: TR-FRET competition; competitor EGF(A)-Fc binding to His-PCSK9
T1 construct: Captured by the His tag (SPR Methods 1 and 2), amine-coupled (Method 3), or His-tagged in TR-FRET; also called His-PCSK9

[2] = molecular target: T1, PCSK9 (proprotein convertase …); assay: SPR, Method 3 (SensiQ Pioneer FE, target amine-coupled, gradient injection)
PCSK9Δhelix [3] = molecular target: T2, PCSK9Δhelix (human, UniProt Q8NBP7 31-152; Q8NBP7 168-692); assay: as above
T2 construct: Made by TEV cleavage of human PCSK9 M1-Q692 with an engineered TEV site; The new N-terminus of the catalytic domain is S-A168; also called His-PCSK9Δhelix; PCSK9 lacking the P' helix

PCSK9Δhelix [4] = molecular target: T2, PCSK9Δhelix; assay: TR-FRET competition; competitor Ab20 binding to His-PCSK9Δhelix
[5] = molecular target: T1, PCSK9 (proprotein convertase …); assay: TR-FRET competition; competitor EGF(A)-Fc binding to His-PCSK9; remark: listed apart in the source
PCSK9Δhelix [6] = molecular target: T2, PCSK9Δhelix; assay: TR-FRET competition; competitor Ab20 binding to His-PCSK9Δhelix; remark: listed apart in the source
[7] = molecular target: T1, PCSK9 (proprotein convertase …); assay: TR-FRET competition; competitor EGF(A)-Fc binding to His-PCSK9; remark: listed apart in the source
PCSK9Δhelix [8] = molecular target: T2, PCSK9Δhelix; assay: TR-FRET competition; competitor Ab20 binding to His-PCSK9Δhelix; remark: listed apart in the source
[9] = molecular target: T3, PCSK9Δhelix (human PCSK9 lacking the P' helix, His-tagged) (human, UniProt Q8NBP7 31-152; Q8NBP7 168-692); assay: SPR (Biacore), His-tagged PCSK9Δhelix captured on NTA chip
T3 construct: Construct M1-Q692 with an engineered TEV site (Y166 and R167 deleted, ENLYFQS inserted between R165 and A168); also called His-PCSK9Δhelix; C-terminal (His)8-tagged PCSK9Δhelix

[10] = molecular target: T3, PCSK9Δhelix (human PCSK9 lacking the P' …); assay: TR-FRET competition; His-PCSK9Δhelix with Ab20 as competitor ligand
[11] = molecular target: T3, PCSK9Δhelix (human PCSK9 lacking the P' …); assay: as above; remark: listed apart in the source
[12] = molecular target: T4, His-tagged, full-length human PCSK9 (proprotein convertase subtilisin/kexin type 9) (human, UniProt A8T644 31-152; Q8NBP7 153-692); assay: TR-FRET competition; His-PCSK9 with EGF(A)-Fc as competitor ligand
T4 construct: also called His-PCSK9; C-terminal (His)8-tagged PCSK9

[13] = molecular target: T4, His-tagged, full-length human PCSK9 …; assay: TR-FRET competition; His-PCSK9 with LDLR-Fc as competitor ligand

T1 sequence (Q8NBP7 31-692 limits assumed): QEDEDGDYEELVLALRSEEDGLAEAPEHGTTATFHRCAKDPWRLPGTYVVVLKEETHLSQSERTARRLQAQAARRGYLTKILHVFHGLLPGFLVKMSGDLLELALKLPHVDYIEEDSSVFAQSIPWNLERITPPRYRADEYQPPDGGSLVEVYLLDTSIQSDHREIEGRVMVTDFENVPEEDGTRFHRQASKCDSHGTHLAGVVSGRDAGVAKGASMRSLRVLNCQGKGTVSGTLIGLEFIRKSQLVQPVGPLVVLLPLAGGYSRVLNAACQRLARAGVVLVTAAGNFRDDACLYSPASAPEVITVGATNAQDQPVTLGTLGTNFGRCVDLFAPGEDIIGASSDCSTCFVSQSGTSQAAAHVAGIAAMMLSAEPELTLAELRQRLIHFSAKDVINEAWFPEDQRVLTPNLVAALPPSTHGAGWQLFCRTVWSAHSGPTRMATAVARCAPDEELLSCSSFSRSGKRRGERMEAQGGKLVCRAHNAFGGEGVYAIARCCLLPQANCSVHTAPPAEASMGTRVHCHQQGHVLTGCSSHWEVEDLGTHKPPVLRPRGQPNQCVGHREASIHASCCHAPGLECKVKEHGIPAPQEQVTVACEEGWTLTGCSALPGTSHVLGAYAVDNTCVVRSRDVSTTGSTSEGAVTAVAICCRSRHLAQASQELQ
T3 sequence (Q8NBP7 31-152, stated change not applied, chain 1 of 2): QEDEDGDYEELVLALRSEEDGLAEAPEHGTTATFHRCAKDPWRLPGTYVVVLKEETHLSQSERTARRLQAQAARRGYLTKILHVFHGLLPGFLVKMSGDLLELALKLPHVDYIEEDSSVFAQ
T3 sequence (Q8NBP7 other isoform, or with tags, fused parts or gaps mutant, chain 2 of 2): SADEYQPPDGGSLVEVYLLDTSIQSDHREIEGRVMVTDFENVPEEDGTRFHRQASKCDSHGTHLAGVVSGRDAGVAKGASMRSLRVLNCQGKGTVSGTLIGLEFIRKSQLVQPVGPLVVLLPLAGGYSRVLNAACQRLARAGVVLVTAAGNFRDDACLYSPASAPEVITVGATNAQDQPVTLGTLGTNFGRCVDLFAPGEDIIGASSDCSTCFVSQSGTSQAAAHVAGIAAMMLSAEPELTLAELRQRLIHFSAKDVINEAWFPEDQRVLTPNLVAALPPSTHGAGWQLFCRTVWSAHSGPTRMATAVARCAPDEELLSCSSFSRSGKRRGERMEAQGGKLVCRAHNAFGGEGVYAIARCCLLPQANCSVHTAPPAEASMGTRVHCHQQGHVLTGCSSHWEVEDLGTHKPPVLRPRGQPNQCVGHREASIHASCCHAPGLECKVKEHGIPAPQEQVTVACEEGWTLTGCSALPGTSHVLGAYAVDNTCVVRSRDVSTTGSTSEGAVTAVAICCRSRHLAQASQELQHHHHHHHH
T4 sequence (A8T644 31-152, chain 1 of 2): as the sequence (Q8NBP7 31-152, stated change not applied, chain 1 of 2) above
T4 sequence (A8T644 other isoform, or with tags, fused parts or gaps, chain 2 of 2): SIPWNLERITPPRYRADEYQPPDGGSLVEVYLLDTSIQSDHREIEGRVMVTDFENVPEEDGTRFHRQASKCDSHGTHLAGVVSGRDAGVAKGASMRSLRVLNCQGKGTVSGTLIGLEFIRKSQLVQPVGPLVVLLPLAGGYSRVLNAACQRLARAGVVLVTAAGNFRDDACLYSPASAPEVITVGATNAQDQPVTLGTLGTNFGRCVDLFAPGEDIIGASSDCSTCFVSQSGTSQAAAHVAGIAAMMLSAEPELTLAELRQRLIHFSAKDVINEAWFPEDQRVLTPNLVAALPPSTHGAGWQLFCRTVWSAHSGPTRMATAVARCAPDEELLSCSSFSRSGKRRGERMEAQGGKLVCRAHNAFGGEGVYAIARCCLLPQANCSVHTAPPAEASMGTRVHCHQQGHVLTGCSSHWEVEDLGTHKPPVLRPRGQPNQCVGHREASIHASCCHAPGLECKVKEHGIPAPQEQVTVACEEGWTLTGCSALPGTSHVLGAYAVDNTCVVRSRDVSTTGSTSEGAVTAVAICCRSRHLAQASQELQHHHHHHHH
T2 sequence (Q8NBP7 31-152, stated change not applied, chain 1 of 2): as the sequence (Q8NBP7 31-152, stated change not applied, chain 1 of 2) above
T2 sequence (Q8NBP7 other isoform, or with tags, fused parts or gaps mutant, chain 2 of 2): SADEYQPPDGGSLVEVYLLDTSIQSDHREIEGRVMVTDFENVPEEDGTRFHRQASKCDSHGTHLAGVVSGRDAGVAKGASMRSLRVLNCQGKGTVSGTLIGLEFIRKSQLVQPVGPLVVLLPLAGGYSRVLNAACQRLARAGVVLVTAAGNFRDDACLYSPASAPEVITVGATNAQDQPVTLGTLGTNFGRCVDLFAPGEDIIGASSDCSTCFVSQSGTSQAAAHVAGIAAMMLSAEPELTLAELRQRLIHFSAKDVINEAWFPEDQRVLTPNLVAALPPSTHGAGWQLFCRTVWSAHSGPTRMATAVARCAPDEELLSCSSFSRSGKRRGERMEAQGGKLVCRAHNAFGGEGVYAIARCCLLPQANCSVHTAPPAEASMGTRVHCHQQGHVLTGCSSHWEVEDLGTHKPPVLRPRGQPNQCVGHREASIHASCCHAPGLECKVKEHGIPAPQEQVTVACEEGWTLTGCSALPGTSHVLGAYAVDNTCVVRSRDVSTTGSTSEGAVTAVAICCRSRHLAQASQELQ

Ac-TVFTSWEEYLDWVGSGCWNLGRIGSQGC-NH2 (disulfide 17-28 (inferred), Two Cys, disulfide-cyclized) [Compound 11]
IC50 [1]: 340 nM

Ac-TVFTSWEEYLDWVGSGCWNLKRVGSQGC-NH2 (disulfide 17-28 (inferred), Two Cys, disulfide-cyclized) [Compound 12]
IC50 [1]: 190 nM

5FAM-SGSGCRLPWNLQRIGLPC-NH2 (disulfide 5-18 (inferred), Two Cys, disulfide-cyclized) [Compound 34]
Kd [2]: 4.47 µM
Kd (PCSK9Δhelix [3]): 5.28 µM

Ac-ALMPWNLVRIGLLR-NH2 [Compound 45]
IC50 (PCSK9Δhelix [4]): 2.02 µM
Kd [2]: 117 µM
Kd (PCSK9Δhelix [3]): 8.2 µM
IC50 [5]: > 50 µM

Ac-DLMPWNLVRIGLAR-NH2 [Compound 55]
IC50 (PCSK9Δhelix [4]): 9.7 µM
Kd [2]: 96.5 µM
Kd (PCSK9Δhelix [3]): 2.8 µM
IC50 [5]: > 50 µM

Ac-LMPWNLVRIGLLR-NH2 [Compound 50]
IC50 (PCSK9Δhelix [4]): 2.66 µM
Kd [2]: 16.1 µM
Kd (PCSK9Δhelix [3]): 1.6 µM
IC50 [5]: > 50 µM

Ac-MPWNLVRIGLLR-NH2 [Compound 51]
IC50 (PCSK9Δhelix [4]): 4.69 µM
Kd [2]: 26.2 µM
Kd (PCSK9Δhelix [3]): 2.7 µM
IC50 [5]: > 50 µM

Ac-PWNLVRIGLLR-NH2 [Compound 52]
IC50 (PCSK9Δhelix [4]): 10.2 µM
Kd [2]: 17.9 µM
Kd (PCSK9Δhelix [3]): 2.6 µM
IC50 [5]: > 50 µM

Ac-WNLVRIGLLR-NH2 [Compound 53]
IC50 (PCSK9Δhelix [4]): 33.1 µM
Kd [2]: 223 µM
Kd (PCSK9Δhelix [3]): 33.8 µM
IC50 [5]: > 50 µM

Ac-CRL[Ach]WNLQRIGLPC-NH2 (disulfide 1-14 (inferred), Two Cys, disulfide-cyclized) [Compound 82]
Kd [2]: 118 µM
Kd (PCSK9Δhelix [3]): 6.4 µM

Ac-FCLWNLKRIGAQCWF-NH2 (disulfide 2-13 (inferred), Two Cys, disulfide-cyclized) [Compound 96]
Kd [2]: 46.4 µM
Kd (PCSK9Δhelix [3]): 2.5 µM

B1: Compound 97 (peptide)
peptide: Ac-GSGCWNL[Dap]RIGSQGC-NH2
modifications: disulfide 4-15
SMILES: CC[C@H](C)[C@@H]1NC(=O)[C@H](CCCNC(=N)N)NC(=O)[C@H](CN)NC(=O)[C@H](CC(C)C)NC(=O)[C@H](CC(N)=O)NC(=O)[C@H](Cc2c[nH]c3ccccc23)NC(=O)[C@@H](NC(=O)CNC(=O)[C@H](CO)NC(=O)CNC(C)=O)CSSC[C@@H](C(N)=O)NC(=O)CNC(=O)[C@H](CCC(N)=O)NC(=O)[C@H](CO)NC(=O)CNC1=O
notes: Two Cys, disulfide-cyclized; also called Ac-GSG-CWNL(Dpr)RIGSQGC-NH2
Kd [2]: 522 µM
Kd (PCSK9Δhelix [3]): 89.2 µM

Ac-TVFTSWEEYLDWVGSGKLWNLGRV-NH2 [Compound 1]
IC50 (PCSK9Δhelix [6]): 21 nM
IC50 [7]: 388 nM

Ac-TVFTSWEEYLDWVGSGKLWNLGR-NH2 [Compound 4]
IC50 (PCSK9Δhelix [6]): 1520 nM
IC50 [7]: 490 nM

Ac-TVFTSWEEYLDWVGSGKLWNLG-NH2 [Compound 5]
IC50 (PCSK9Δhelix [6]): 11100 nM
IC50 [7]: 720 nM

Ac-TVFTSWEEYLDWVGSGKLWNL-NH2 [Compound 6]
IC50 (PCSK9Δhelix [6]): 10000 nM
IC50 [7]: 740 nM

Ac-TVFTSWEEYLDWVGSGKLWN-NH2 [Compound 7]
IC50 (PCSK9Δhelix [6]): 18600 nM
IC50 [7]: 500 nM

Ac-TVFTSWEEYLDWVGGSGKLWNLGRV-NH2 [Compound 8]
IC50 (PCSK9Δhelix [6]): 49 nM
IC50 [7]: 1030 nM

Ac-TVFTSWEEYLDWVGSGGKLWNLGRV-NH2 [Compound 9]
IC50 (PCSK9Δhelix [6]): 65 nM
IC50 [7]: 390 nM

Ac-TVFTSWEEYLDWVGSGGCRLPWNLQRIGLPC-NH2 (disulfide 18-31 (inferred), Two Cys, disulfide-cyclized) [Compound 25]
IC50 (PCSK9Δhelix [8]): 83 nM
IC50 [1]: 781 nM

Ac-TVFTSWEEYLDWVGSGGCFLPWNLQRIGLLC-NH2 (disulfide 18-31 (inferred), Two Cys, disulfide-cyclized) [Compound 38]
IC50 (PCSK9Δhelix [8]): 3 nM
IC50 [1]: 471 nM

Ac-TVFTSWEEYLDWVGGSGCWNLKRIGSQGC-NH2 (disulfide 18-29 (inferred), Two Cys, disulfide-cyclized) [Compound 13]
IC50 (PCSK9Δhelix [8]): 1 nM
IC50 [1]: 10 nM

Ac-TVFTSWEEYLDWVGSGGCWNLKRIGSQGC-NH2 (disulfide 18-29 (inferred), Two Cys, disulfide-cyclized) [Compound 14]
IC50 (PCSK9Δhelix [8]): 1 nM
IC50 [1]: 9 nM

Ac-DLMPWNLVRIGLLR-NH2 [Compound 35: Ac-DLMPWNLVRIGLLR-NH2]
Kd [9]: 1380 nM
IC50 [10]: 7.9 µM

Ac-LMPWNLVRIGLLR-NH2 [Compound 50: Ac-LMPWNLVRIGLLR-NH2]
Kd [9]: 470 nM
IC50 [10]: 3.6 µM

Ac-MPWNLVRIGLLR-NH2 [Compound 51: Ac-MPWNLVRIGLLR-NH2]
Kd [9]: 1400 nM
IC50 [10]: 6.6 µM

Ac-PWNLVRIGLLR-NH2 [Compound 52: Ac-PWNLVRIGLLR-NH2]
Kd [9]: 2100 nM
IC50 [10]: 15.9 µM

Ac-WNLVRIGLLR-NH2 [Compound 53: Ac-WNLVRIGLLR-NH2]
Kd [9]: 14000 nM
IC50 [10]: 52.4 µM

B2: Compound 231: Ac-ESYPGWNLV(homoR)IGLLR-NH2 (peptide)
peptide: Ac-ESYPGWNLV[hArg]IGLLR-NH2
SMILES: CC[C@H](C)[C@H](NC(=O)[C@H](CCCCNC(=N)N)NC(=O)[C@@H](NC(=O)[C@H](CC(C)C)NC(=O)[C@H](CC(N)=O)NC(=O)[C@H](Cc1c[nH]c2ccccc12)NC(=O)CNC(=O)[C@@H]1CCCN1C(=O)[C@H](Cc1ccc(O)cc1)NC(=O)[C@H](CO)NC(=O)[C@H](CCC(=O)O)NC(C)=O)C(C)C)C(=O)NCC(=O)N[C@@H](CC(C)C)C(=O)N[C@@H](CC(C)C)C(=O)N[C@@H](CCCNC(=N)N)C(N)=O
IC50 [11]: 1490 nM
IC50 [12]: 15.8 µM
IC50 [13]: > 50 µM

B3: Compound 227: Ac-ESFPGWNLV(homoR)IGLLR-NH2 (peptide)
peptide: Ac-ESFPGWNLV[hArg]IGLLR-NH2
SMILES: CC[C@H](C)[C@H](NC(=O)[C@H](CCCCNC(=N)N)NC(=O)[C@@H](NC(=O)[C@H](CC(C)C)NC(=O)[C@H](CC(N)=O)NC(=O)[C@H](Cc1c[nH]c2ccccc12)NC(=O)CNC(=O)[C@@H]1CCCN1C(=O)[C@H](Cc1ccccc1)NC(=O)[C@H](CO)NC(=O)[C@H](CCC(=O)O)NC(C)=O)C(C)C)C(=O)NCC(=O)N[C@@H](CC(C)C)C(=O)N[C@@H](CC(C)C)C(=O)N[C@@H](CCCNC(=N)N)C(N)=O
IC50 [11]: 2510 nM
IC50 [12]: 23.2 µM
IC50 [13]: > 50 µM
